# Experimental data reported in publication PMC12121223.
# Target: extracellular region of FGFR1 fused to the Fc fragment of human IgG1 (UniProt P11362)
# Chain of UniProt P11362 (P11362 22-376): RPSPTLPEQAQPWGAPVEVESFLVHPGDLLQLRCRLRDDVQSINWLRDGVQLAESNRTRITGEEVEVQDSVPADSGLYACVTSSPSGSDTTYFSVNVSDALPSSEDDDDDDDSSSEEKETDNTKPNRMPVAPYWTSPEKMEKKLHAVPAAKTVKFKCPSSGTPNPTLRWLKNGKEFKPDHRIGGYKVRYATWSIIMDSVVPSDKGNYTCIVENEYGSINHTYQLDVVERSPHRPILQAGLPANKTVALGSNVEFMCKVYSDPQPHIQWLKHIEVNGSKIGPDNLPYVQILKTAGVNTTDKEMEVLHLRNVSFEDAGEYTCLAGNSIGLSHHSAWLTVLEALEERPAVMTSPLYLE
substance,measurement,value
truncated wild-type FGF1 (Met-Ala-FGF1 21-154) (ligand),"cellular uptake of fluorescently labelled FGF1WT into U2OS-R1 cells in the presence of heparin, quantitative confocal microscopy (normalized RSI)",25.2%
